Experimental data published in a protein production outcome set (Wang et al. 2014).

Assay: label from the status in PepcDB records

| Sequence | protein production |
| --- | --- |
| MTIAILPARLANQIAAGEVVERPASVIKELIENSLDAGATSIHIDVDKGGIKKIKITDNGHGIVKEELTLALSRHATSKIKSLNDLEAIGSLGFRGEALASISSVARLTLTSKPQSQATAWQAVAEGRDMSVNIKPAAHPDGTSIEVLDLFFNTPARRKFLRTEKTEFNHIDEVVRRIALAHFEVSFSLTHNGNTVRQYRMASTHAQCIKRVAMVCGPKFIEHAVEVDCPHDNMTLSGWLAKPSFSRSQNDLCYSYVNGRMMRDKLINHAIRQAYADLLPPDTYPAFVLFLQLDHREVDVNVHPSKHEVRFHQSRYVHDFIYSVCHKALTSALAGEELFTTADSDLALVPEQSYSSLGANDRQGSHSSNTPTLNYPSADYIRPLQHVNDASNSQSTSSYSGYGQQHKTNAISKIAASNYQALMTPDKGSSAQVQNTSGSDQASAQKHETTTLQNSTDQSAFLSVHQPGYALYKTENGVRVLSLFKLAKSTYGKLVEQSWQNKTEQSDCPVECLVSQPLLLPVILSLSEQQLSFVLAEQEILSNAGIVFIQQHKNKIQIRQFPALLREQDVSNALIIIIEELIEKRSFTEGEALCETNLHQSIGLAMVLAEYDETQADILLRLTKKLFHEQLSQQLLLNSIPLDLTSHIKTLF | failed |
| MRHLITSLQNHNGQLKGEVQRYKRKYKDTSTDNLKLRQELADALATLEGNKLQAATGAAGEEIKQENSTGVKEENSNNVSASGQTNQTNSGNDTNVAIKEENHISAEDEADDEASGKDVKDGIKQEKLSSGDAAAAEKKDSPGPGNSTSSATNSVPVKNEKDSKDGVKGKDVKAVESETV | failed |
| MNNIRLLNQNDLDSYIELMKFGHHNYEWDRYYLENVSIDRLKTILSNHTDYWNIFGAFEDDELVATCTLKQMNYVGKCHKAILENNFVKNNDEIVNRELINHIIQYAKEQNIETLMIAIASNNISAKVFFSSIGFENLAFEKNASKIGNEYFDENWLIYSTTE | failed |
| MGHHHHHHSHMTKLPPIEQLLPHDKPMILVDRAMDIQQDTIHCQVDIAEHNPFFDSASQTVPAYVGIEFMAQSVAAWSGYHALMKEQAPPIGFLLGSRRYTSECDAFSRGQMLDVYAEKVMEDNGMAVFSARIELQGTVVATCQLNVYVPSEEKLQEMKIRSQQ | not failed |
| LDLMKEKNLIQKFFKELIKDDGGLSAYGEAQVMKYLEMGAIDTLIVTEDIGITRVTVKCNNCDYAQEVNVKTNEMFKFEEQLKTKACPTCGGAMYIDEEKDIIEHLSDLCHMHNTDIIVVSTDTEEGSQISRAFKGMAAILRYKL | not failed |
| MAYVTLYPNLILEALGKVRYPGTGKDLVSAGMVEDDIRIDGNKVSFSLIFDKANDPFIKSVVKAAESAILTYISEDVNIKGNISVKSKQAIPAPPAKLLPGVKNIIAVFSGKGGVGKSTVTANLAVSLAKSGYRVGLLDADIFGPSMPKMFHCEESRPVLEEVDGRELIVPEEVMGVKILSIGFFVDPDNAVLWRGSMAGNALTQLIRDANWGELDYFLIDMPPGTSDIHLTLVQTLAITGAVVVTTPQDVALADARKGISMFVGEKINVPVLGLVENMSWFTPAELPQNKYYIFGRDGGKNLAEELNIPLLGQIPLVQGICQSGDEGIPVAVRDDSMMGIAFRELAARVVEQVDYRNEHLDPTKVVEVAHR | failed |
| MPTVAPLDIEGHVVSTHFLGDIPLFATAAGTIHRLDGGEKVTEAHDGLLTCIRDPYSATLLSGGEDGRVLRIGHDGSISEIANVPRKWVGVVAGGPQKAVAYGVGKSSFVRLSDCTVKEFKEERTVEAIAFAPKGLRIAVARYNGVTLHWVATAGDPVDLEWKGAHTGVTFSPDGKFLVTTMQENALHGWKMEATKGGMEARHMRMTGYPAKVKSISWSVKGKWLASSGAPAAIVWPFSGKDGPMGKAPEELGSRANIMATNVAFHPVEDVLAIGFIDGMILGVRLADGKEALLRRPGKGAITSMDWSATGNLLAFASEAGDCGIIDISALEHHHHHH | failed |
| MESLPVLGVFFMVKTANVAVMPLFPRSQYRIIGQIGQGQFGRVYCAIHRTTGKMYALKDLEHRVFPTNKFLRELSYLLTLRHPNIVACHGLEYHPGGRYLVMDYCEGGTLRDIIDGDGDLCLAGKIDLLRQILLGLAQAHQHDIVHCDLKPENILLIPRAEGWQVKVSDFGIARLTAKTGNPNFSKGYTGSPAYMAPERFYGKFSVASDIYAVGILLYELIVGDRPFSGFPKALQAAHLNVRLTLPPEFPPLLAPIVQRALEKLPQRRFPNATAMASDLATVQKQILEQDPPRGNGYLYHHLAPAPLAFTATVKHSTPLLFPISHLTGAGLWLYLGNGAELYLWEYGDGNVEHHPLPRWALGLPGTIANLEVNQDQISLLIQGGEPGEWQFYQWRETLLGALSLPKPRINLRAERLLANLSPGGKTLAVVVGDRDSEKGHFQLWRTDHSLPVAAAVVIRWPDQLLTLDQNHGLLVQSQSTASYCHTIFFLFNRRGSLFPAFRLSFLVFQLVVNRYSRNHLFGLADNAPYTGILIRLQPLKVNRIALTIQPQFIEPFPWGYLLADRHGEVALLDYEGFLFGNFSLGETITAIAPMGRYLCLFATWQGNGGTLRLLDLGPQVENIIRQRQEKR | failed |
| MRERFDVVIAGAGPAGAQCARDLAERNYEVLVLESEPEDGFPRQSNKSTAGTFMSAMTGFAIPDDVVMNYTDNVVLESPNDHYVRNQTGAVLEFAEFKQWLVSEGRDKGATYRFDSRVSAPIMENGEIVGVRYDGDEEVYADIVIDATGPAAPLAKELDVCNLQRNHQAIGVEYEFEGVEVDHDDYADLRDAMMLRLDHDLAPGGYSWIFHTGEDTAKVGLCYIQNGSHQKYAKDGMGIDDYLEYWLDSDPRFDDAERIEGTQAHRGSAHIQPPDSMSTDNFMAIGDTVPTVDPLWGEGIHKGMKSARAAAATADSALKPDEPDTSAENLSVYDQLWHSEVAPKHNARLMMTELLYLAPNERYDQLMDDLRSTGQDTLRQINGGDRRAIAKLTHLSDMPILVEYARRRLDILEHHHHHH | failed |
| MAPVIRRAKEIDLYCLNSLMYKLHDEHHQQCPDLFKTASEIEEEKSIARYLDDPECMVYVAEMDDVIIGFITGHFCELISTVSKLVMMATIDELYIEKEYRREGVAEQLMMRIEQELKDYGVKEIFVEVWDFNKGALEFYNKQGLNEHIHYLRKPLNRLEHHHHHH | not failed |
| MAFVVNGNEYNLAYYLTDEIYPKWATFIQSISLPQDEKASLFATNQEACRKDVERAFGVLQARFAIVKHPALIWDKIKIGNIMRACIILHNMIVEDERDGYTQYDVSDFAHPESASSSQVDFTYSTDMPSNLGNMMATRTRLRDRTKHEHLKADLVEHIWQKFGPIQA | failed |
| MSERVCAVIVTYNRKALLRECLKAVLSQTRPPDHVLVVDNASTDGTPEMLQEEFPQVEVLRLPENQGGAGGFHEGMKRAYEQGVDWLWLMDDDTIPKAKALEALLEAARLPLDPRPRVLASRQLLPNGLPHPTTAFVNPTDPRHPFLWLRLRPRYRPIRWALFTSVLLHRSLVEEHGLPHKAFFIWEDDLEYTARALRRGLGLQVRDSEVIHKSASKPYISATTGENRLFYGVRNRIWVLRSPAFGPLGKAFLALQLLFGLLTYLAFHPSQKSLQEIGRALRAGLTTSPCLEHHHHHH | failed |
| MSANLKPGSQVNTDQKPEKTKVLILGGTGEMGQWFTRFFKQKGYEVTVWGKGGKTEIASKLGVPFASDLEKAVPESDILIVSVPINVTEETIAEFAPKMKSGSLLMDFTSIKVKPVEAMKKFAPSDVEILGTHPMFGPTIPTIRGQTVILVPVKGRSEKWFPVIRELFEEGGAHVEITTAAEHDRLVSVVQGLTHFAYITIGTTIDRLDFDIKKSRKFVSPVYAIMLDFVGRILGQNPYLYALIQMENPGVLEVHDAFIRECEELSRLVRAHDEESFVKKMKSAARKYGDTAHALRKSDKLINSRITEYETILNSVGKVCGFSHFYSGKIHVGILGKAGPDEIVLTKMVSKGTSPHIKNKFVKLKLENLRMLSESELWEWRKENLEHSTRDISVLIPEGADPEVILNAINTNKQLAACEISDIYKGVNQGDHKRINRGDYKEFNRIETEKEREEAKRLGVTYRITVFGDCDANSVEADVTSLLCGLGCRIREKNLKQIEKTEPKR | failed |
| MSPIARAALWMTGAIASFSAMAVAGRELSAVHDTFEIMMYRSFVGVLVVSLILSVTGTWHQVSTRALGLHALRNAVHFTGQNLWFFAVTVIPLAQVFALEFTQPLWVILLSPLLLGERMTRVRVAAAVIGFVGILIVARPGASSLNIGILTAALSAIFFAMTTISTKKLTRLASIGCIMFWLTVMQAVLGLVASGHDGQIALPTLGTAPYLVLVGLAGLLAHYCITNALAIAPATVVVPIDFARLPTIAVVGMLLYGEALDIWVLVGAAVIFAGNYLNILAETRNTAR | failed |
| MALNNFLTFQLLLLLLRVSSESPWIVAGDVSRIPINFLELAKSPEVFDSMVRIRRKIHENPELGYEEFETSKFIRSELDLIGVKYRFPVAITGIIGYIGTGEPPFVALRADMDALPIQEAVEWEHKSKNPGKMHACGHDGHVAMLLGAAKILQQHRQHLQGTVVLIFQPAEEGLSGAKMMREEGALKNVEAIFGIHLSPRTPFGKAASLAGSFMAGAGAFEAVITGKGGHAAIPQHTIDPVVAASSIVLSLQHLVSRETDPSDSKVVTVTKVNGGNAFNVIPDSITIGGTLRAFTGFTQLQERIKEIITKQAAVHRCNASVNLAPNGNQPMPPTVNNMDLYKKFKKVVRDLLGQEAFVEAVPEMGSEDFSYFAETIPGHFSLLGMQDETQGYASSHSPHYRINEDVLPYGAAIHATMAVQYLKDKASKGSVSGFHDEL | not failed |
| TYHRLALQRENASLNPVGQMVAVNGYKISVFVKGQGSQTLVFLSGAGTASPILDFKDVYDGFSKEYKIVVVERADYGYSEDTSKSRDVSVILSETRQSLAKSQVSGPYIILSHSMASLETLLWQENYPSEVKAVVCLDWAFPESYFQLKRHPQMLRLARWESQLGLLRLLPRQLYMPNENLSDSDRRLYQEIAYRQLLSQAMLNESLCAKENDKKVNSTSIKSQMPVLLMVSNGKGTGFGQEQWRHYATSFAKGQKNMEVTYYDSPHYFYHYQTKEMIRSIEEFVQE | failed |
| MVACRVRLGRHQGARAGRTVCPKHRLRARDAGSRECAALSAGCGRMGRMSEQSLPDGVRPQNADALPEYAERVLDMTELIPPGRVMTYGDVAEYLEEGGPRQVGRVMSLYGGGVPWWRVVRADGVLLAGHELEALDRYREEGTPLKEASRAAEGHLPRLDLKRARWDGEGRPQGHGGRAQGHT | failed |
| MSLHFQILLWLSILFIIAGTILLVTMLKTKKEERKESYLGFTVIFLIFGFAILIYTFIFGIL | failed |
| MKNQSPVPSYEGNVFMIDARDLSIAWSEDSNHWTWLPLPNQNSNTILSSESVMEIAFLKSASWLDVAGKFDTRYLTPRTRYEVVFVVKLEYTFEWETLVKLKLDLPNTWEKPQEQSVDMFDYISDQWLDIPVGEFTTSKKNVGEISFAMYEHECQLWKSGLFVKGVTIRPKY | failed |
| MRMIGRRRALEHRITLIAVIVILQLAATLFFLVDVTGDLRADGSGVHIAAEAGAAIALLVGVVFGAAQVRWLVLRARQDEAAVAAAKGALADLARLRFSDWKLTAAEADVALFALKGCDVAEIAALRGAAAGTVRAQLARVYAKAGVNSQSALMALFLEELVEAGEG | failed |
| MKIPKIYVEGELNDGDRVAIEKDGNAIIFLEKDEEYSGNGKLLYQVIYDDLAKYMSLDTLKKDVLIQYPDKHTLTYLKAGTKLISVPAEGYKVYPIMDFGFRVLKGYRLATLESKKGDLRYVNSPVSGTVIFMNEIPSERANYVFYMLEE | not failed |
| MTERPSLSPREARDRYLAHRQTDAADASIKSFRYRLKHFVEWAEERDITAMRELTGWKLDEYETFRRGSDVSPATLNGEMQTLKNWLEYLARIDVVDEDLPEKVHVPTIPDGEESNDEMLEPEAAKKLLRAMRSDPTHYGTVKHALLELLWFTGCRVGAARSLDLRDYHSGERFVTFHHREGTPLKNDSDGERAVGLPEAVCEVLDYYIEHHRESSHDDHGRKPLFTTTQGRASENTARVWTYLATQPCLHGPCPHGKERETCSYLHIHSASKCPSSLSPHRIRTGSITWQRDCGLPAEVVSERVNATLEVIEKHYDQATKRQRLEERRRPYINNLELDLEADS | failed |
